Assay results published in patent US20150025013A1.

What was measured:
[1] = target: (pro)renin receptor (PRR), mouse (mouse) (UniProt Q9CYN9); experiment: cell-based or functional assay
[2] = target: (pro)renin receptor (PRR) on mpkCCD cells (UniProt Q9CYN9); experiment: cell-based or functional assay
Sequence of (pro)renin receptor (PRR) on mpkCCD cells (Q9CYN9 18-350 limits assumed): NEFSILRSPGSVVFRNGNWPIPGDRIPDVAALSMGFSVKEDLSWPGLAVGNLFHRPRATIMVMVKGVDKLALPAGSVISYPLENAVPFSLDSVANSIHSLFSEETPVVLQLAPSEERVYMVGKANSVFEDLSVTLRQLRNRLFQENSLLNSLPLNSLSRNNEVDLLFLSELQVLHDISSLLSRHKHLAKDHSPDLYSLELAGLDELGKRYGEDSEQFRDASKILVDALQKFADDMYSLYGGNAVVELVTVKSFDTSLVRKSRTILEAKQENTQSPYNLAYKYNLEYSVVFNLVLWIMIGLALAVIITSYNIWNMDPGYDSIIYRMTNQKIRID

Sequence of (pro)renin receptor (PRR), mouse (mouse) (Q9CYN9 18-350): as the sequence (Q9CYN9 18-350 limits assumed) above

| pressor response (delta MAP) to ICV mouse prorenin alone in C57BI/6J mice [1] [mmHg] | pressor response (delta MAP) to ICV mouse prorenin in neuron-specific PRR knockout (Nefh-PRR) mice [1] [mmHg] | pressor response (delta MAP) to ICV mouse prorenin in wild-type mice [1] [mmHg] | ENaC activity (Ieq) in mpkCCD cells, 10 nM for 5 min (control group 1.17+0.05 µA/cm2) [2] [µA/cm2] | Substance |
| --- | --- | --- | --- | --- |
| 31.3 | 5 | 41 | – | mouse prorenin (from UniProt P06281 22-402) (ligand) |
| – | – | – | 3.16 | prorenin (cell culture experiments of Example 13) (ligand) |
| – | – | – | 1.58 | renin (cell culture experiments of Example 13) (enzyme) |
